The values that follow come from the supplement of paper PMC10598134.

± gives the standard deviation.

This series can be described thus: collision cross section of modified peptide (TIMS, N2, iRT-aligned); higher = larger / more extended gas-phase ion. The method in brief: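 Collision cross section values rest on the Mason-Schamp equation applied to calibrated, run-aligned mobility data from synthetic peptides. Mobility (1/K0) was calibrated with three reference ions and aligned per run to the median iRT peptide deviation, and 1–3 technical replicates of the most abundant feature per charge state were averaged. Data came from a timsTOF Pro/HT in dda-PASEF mode (nitrogen, ~2.4 mbar) after a 120-min nanoflow C18 gradient at 60 °C.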

The mark [1] stands for this setting: charge state: 2, modification: Dimethyl (K).
Setting [2] is: charge state: 3, modification: Dimethyl (K).
Setting [3] is: charge state: 2, modification: Phospho (Y).
The mark [4] stands for this setting: charge state: 3, modification: Phospho (Y).
[5] abbreviates: charge state: 2, modification: HexNAc (ST).
[6] abbreviates: charge state: 2, modification: Malonyl.
The mark [7] stands for this setting: charge state: 3, modification: Malonyl.
The mark [8] stands for this setting: charge state: 3, modification: GlyGly (K).
The mark [9] stands for this setting: charge state: 3, modification: Biotin.
The mark [10] stands for this setting: charge state: 2, modification: GlyGly (K).
The mark [11] stands for this setting: charge state: 2, modification: Acetyl (K).
Setting [12] is: charge state: 3, modification: Acetyl (K).
[13] abbreviates: charge state: 2, modification: Methyl (K).
Setting [14] is: charge state: 3, modification: Methyl (K).
Setting [15] is: charge state: 2, modification: Hydroxyproline.
[16] abbreviates: charge state: 2, modification: hydroxyisobutyryl.
Where [17] appears, read: charge state: 3, modification: Methyl (R).
The mark [18] stands for this setting: charge state: 2, modification: Citrullination (R).
The mark [19] stands for this setting: charge state: 3, modification: Citrullination (R).
Where [20] appears, read: charge state: 3, modification: Trimethyl (K).
The mark [21] stands for this setting: charge state: 3, modification: hydroxyisobutyryl.
The mark [22] stands for this setting: charge state: 2, modification: Glutarylation.
Where [23] appears, read: charge state: 3, modification: Glutarylation.
Where [24] appears, read: charge state: 2, modification: Succinyl.
The mark [25] stands for this setting: charge state: 3, modification: Succinyl.
Setting [26] is: charge state: 3, modification: Hydroxyproline.

Regarding “LTEKELAEAASK [_LTEK(Dimethyl (K))ELAEAASK_]”, the collision cross section worked out at 397.3 ± 0.55 Å² under setting [1] and 456.37 ± 5.1 Å² under setting [2].
Consider YVHADAPTNK [_Y(Phospho (Y))VHADAPTNK_], for which the collision cross section under setting [3] is given as 354.72 ± 0.065 Å² and the collision cross section under setting [4] is listed as 420.4 ± 1 Å².
VTGGIFSVTK [_VTGGIFS(HexNAc (ST))VTK_]: the collision cross section under setting [5] was 361.54 ± 1.2 Å².
On to “AAQASDLEKIHLDEK [_AAQASDLEK(Malonyl)IHLDEK_]”, for which the collision cross section is, setting by setting: under setting [6], 460.56 ± 1.1 Å²; under setting [7], 500.48 Å².
Substance “HELQANCYEEVKDR [_HELQANCYEEVK(GlyGly (K))DR_]” returned a collision cross section under setting [8] of 529.53 ± 1.6 Å².
Consider “DYSSGFGGKYGVQADR [_DYSSGFGGK(Biotin)YGVQADR_]”, for which the collision cross section reads like this: (charge state: 2, modification: Biotin) 450.72 ± 0.16 Å²; under setting [9], 509.9 ± 0.34 Å².
Consider “DAEAAEATAEGALKAEK [_DAEAAEATAEGALK(GlyGly (K))AEK_]”, for which the collision cross section under setting [10] is 475 ± 1.6 Å² and the collision cross section under setting [8] stood at 538.51 ± 1.1 Å².
Consider LDEKENLSAK [_LDEK(Dimethyl (K))ENLSAK_], for which the collision cross section under setting [1] amounted to 364.75 ± 0.28 Å² and the collision cross section under setting [2] stood at 441.27 Å².
Consider TLDEILQEKK [_TLDEILQEK(Acetyl (K))K_], for which the collision cross section came out at 377 ± 0.3 Å² under setting [11] and 448.44 Å² under setting [12].
In the case of “FLQEFYQDDELGKK [_FLQEFYQDDELGK(Methyl (K))K_]”, the collision cross section runs as follows: under setting [13], 445.9 ± 2.4 Å²; under setting [14], 499.81 ± 3 Å².
“GPPGPAGPSGESR [_GPP(Hydroxyproline)GPAGPSGESR_]”: the collision cross section under setting [15] stood at 344.62 ± 1.9 Å².
In the case of “ASNAAVKLAESK [_ASNAAVK(hydroxyisobutyryl)LAESK_]”, under setting [16], the collision cross section is listed as 376.83 ± 0.8 Å².
Turning to “GADFLVTEVENGGSLGSKK [_GADFLVTEVENGGSLGSK(Dimethyl (K))K_]”, the collision cross section under setting [2] worked out at 539.44 Å².
“FGRGTGLTQPSQR [_FGR(Methyl (R))GTGLTQPSQR_]” showed a collision cross section under setting [17] of 470.4 ± 2.6 Å².
“DKALPLEAEVAPVK [_DK(Formyl)ALPLEAEVAPVK_]” yielded a collision cross section (charge state: 2, modification: Formyl) of 412.02 ± 0.74 Å².
Turning to “STNVTVAAARGIK [_STNVTVAAAR(Methyl (R))GIK_]”, the collision cross section by setting is: (charge state: 2, modification: Methyl (R)) 403.35 ± 0.97 Å²; under setting [17], 483.31 ± 3.1 Å².
As to “LVLPSQAQARLPSGEVVK [_LVLPSQAQAR(Citrullination (R))LPSGEVVK_]”, the collision cross section under setting [18] worked out at 464.28 ± 0.94 Å² and the collision cross section under setting [19] turned out to be 522.33 ± 4.3 Å².
Consider “AGQKLIDVNHYAK [_AGQK(Methyl (K))LIDVNHYAK_]”, for which the collision cross section worked out at 421.24 ± 1.5 Å² under setting [13] and 475.12 ± 2.7 Å² under setting [14].
As to “DFAFYNPRLQGK [_DFAFYNPR(Citrullination (R))LQGK_]”, the collision cross section runs as follows: under setting [18], 400.16 ± 0.22 Å²; under setting [19], 473.76 Å².
In the case of “DESFLGKLGGTLAR [_DESFLGK(Trimethyl (K))LGGTLAR_]”, under setting [20], the collision cross section is 477.03 ± 0.84 Å².
Take “LLIVSTTPYSEKDTK [_LLIVSTTPYSEK(hydroxyisobutyryl)DTK_]”: the collision cross section by setting is: under setting [16], 461.48 ± 0.76 Å²; under setting [21], 486.54 ± 2.8 Å².
On to “PASGAGAGAGAGKR [_PASGAGAGAGAGK(Gluratylation)R_]”, for which the collision cross section under setting [22] came out at 357.87 ± 1.2 Å² and the collision cross section under setting [23] came out at 467.6 ± 2 Å².
As to “DSINFLDHINGKK [_DSINFLDHINGK(Crotonyl)K_]”, the collision cross section (charge state: 3, modification: Crotonyl) was 467.81 Å².
The substance ITGKNQVTATK [_ITGK(Crotonyl)NQVTATK_] returned a collision cross section (charge state: 2, modification: Crotonyl) of 369.54 ± 0.26 Å².
Regarding “PRGVISTPVIR [_PR(Citrullination (R))GVISTPVIR_]”, the collision cross section under setting [18] amounted to 367.21 ± 0.24 Å² and the collision cross section under setting [19] is 478.04 Å².
Turning to “DYSQPTAAATVQDIK [_DYSQPTAAAT(HexNAc (ST))VQDIK_]”, the collision cross section under setting [5] worked out at 449.73 ± 0.61 Å².
With “VNVEAPDVNLEGLGGKLK [_VNVEAPDVNLEGLGGK(Succinyl)LK_]”, the collision cross section is reported as 466.17 ± 1.4 Å² under setting [24] and 548.55 ± 1.1 Å² under setting [25].
In the case of “GGGGGGGGGAPRGR [_GGGGGGGGGAPR(Citrullination (R))GR_]”, the collision cross section amounted to 333.41 ± 0.64 Å² under setting [18] and 420.82 ± 2.9 Å² under setting [19].
“DSINFLDHINGKK [_DSINFLDHINGK(Gluratylation)K_]”: under setting [23], the collision cross section is given as 460.36 ± 1.7 Å².
With “LQDVSGQLSSSKK [_LQDVSGQLSSSK(Succinyl)K_]”, the collision cross section is, setting by setting: under setting [24], 402.37 ± 0.79 Å²; under setting [25], 468.7 ± 14 Å².
As to “FSAYIKNSNPALNDNLEK [_FSAYIK(hydroxyisobutyryl)NSNPALNDNLEK_]”, the collision cross section runs as follows: under setting [16], 489.27 ± 0.86 Å²; under setting [21], 551.92 ± 1.1 Å².
Turning to “ANLEKAQAELVGTADEATR [_ANLEK(Malonyl)AQAELVGTADEATR_]”, the collision cross section by setting is: under setting [6], 476.69 ± 0.96 Å²; under setting [7], 576.12 ± 0.95 Å².
Take “ANLEKAQAELVGTADEATR [_ANLEK(GlyGly (K))AQAELVGTADEATR_]”: the collision cross section under setting [10] was 487.2 ± 1.5 Å² and the collision cross section under setting [8] was determined as 513.9 ± 1.3 Å².
As for DHLSDKESK [_DHLSDK(Succinyl)ESK_], the collision cross section reads like this: under setting [24], 350.32 ± 1.6 Å²; under setting [25], 416.05 ± 0.88 Å².
On to “ASNAAVKLAESK [_ASNAAVK(Gluratylation)LAESK_]”, for which the collision cross section under setting [22] amounted to 379.86 ± 0.1 Å².
On to “VDVEVPDVSLEGPEGKLK [_VDVEVPDVSLEGPEGK(Gluratylation)LK_]”, for which the collision cross section was determined as 465.13 ± 4.5 Å² under setting [22] and 502.24 Å² under setting [23].
Regarding “VGLQVVAVKAPGFGDNR [_VGLQVVAVK(hydroxyisobutyryl)APGFGDNR_]”, the collision cross section under setting [16] is on record as 453.58 ± 0.89 Å² and the collision cross section under setting [21] turned out to be 502.92 ± 2.8 Å².
In turn, IHPEGPPLK [_IHP(Hydroxyproline)EGPPLK_] gave a collision cross section under setting [15] of 331.8 ± 0.88 Å² and a collision cross section under setting [26] of 438.36 ± 0.43 Å².
The substance “CSVLAAANPVYGR [_CSVLAAANPVY(Phospho (Y))GR_]” gave a collision cross section under setting [3] of 407.91 ± 1.2 Å².
Under setting [11], “IPQEKCILQTDVK [_IPQEK(Acetyl (K))CILQTDVK_]” came in with a collision cross section of 431.12 ± 1.2 Å².
“VSPASSVDSNIPSSQGYKK [_VSPASSVDSNIPSSQGYK(Acetyl (K))K_]”: the collision cross section is, setting by setting: under setting [11], 458.38 ± 2.6 Å²; under setting [12], 553.13 ± 0.49 Å².
On to “PASGAGAGAGAGKR [_PASGAGAGAGAGK(Propionyl)R_]”, for which the collision cross section is, setting by setting: (charge state: 2, modification: Propionyl) 359.78 ± 0.65 Å²; (charge state: 3, modification: Propionyl) 464.2 ± 0.076 Å².
For the setting “charge state: 3, modification: HexNAc (ST)”, “SLYASSPGGVYATR [_S(HexNAc (ST))LYASSPGGVYATR_]” displayed a collision cross section of 478.28 ± 0.91 Å².
As for FRSGNYR [_FR(Citrullination (R))SGNYR_], the collision cross section under setting [18] was 327.94 ± 2.8 Å².
With LDHLAEKFR [_LDHLAEK(Dimethyl (K))FR_], the collision cross section runs as follows: under setting [1], 368.82 ± 0.36 Å²; under setting [2], 433.76 ± 2.1 Å².
Substance “LEENHYNTYISK [_LEENHYNTY(Phospho (Y))ISK_]” returned a collision cross section under setting [3] of 422.15 ± 0.06 Å² and a collision cross section under setting [4] of 477.33 ± 1 Å².
VDATADYICK [_VDATADY(Nitro (Y))ICK_]: the collision cross section (charge state: 2, modification: Nitro (Y)) is 358.43 ± 0.17 Å².
Take “IHVQSSSDSSDEPAEKR [_IHVQSSSDSSDEPAEK(Biotin)R_]”: the collision cross section under setting [9] is recorded as 513.52 Å².
For the substance “IQQELQTAKK [_IQQELQTAK(Gluratylation)K_]”, the collision cross section by setting is: under setting [22], 388.2 ± 0.52 Å²; under setting [23], 444.75 Å².
Consider “IPQEKCILQTDVK [_IPQEK(Succinyl)CILQTDVK_]”, for which the collision cross section under setting [24] came to 432.46 ± 0.51 Å².
In turn, “LGPPGNPGPSGSPGPKGQK [_LGPPGNP(Hydroxyproline)GPSGSPGPKGQK_]” had a collision cross section under setting [26] of 472.87 ± 1.2 Å².
Under setting [6], GEVQVSDKER [_GEVQVSDK(Malonyl)ER_] came in with a collision cross section of 362.93 ± 1.2 Å².
Substance “YGRGQLNYPLPDFSK [_YGR(Methyl (R))GQLNYPLPDFSK_]” displayed a collision cross section under setting [17] of 496.04 ± 0.79 Å².
Regarding “VNIGQGSHPQKVK [_VNIGQGSHPQK(Trimethyl (K))VK_]”, the collision cross section reads like this: (charge state: 2, modification: Trimethyl (K)) 405.12 ± 1.9 Å²; under setting [20], 473.39 ± 2.7 Å².
As for LLEQKTQESQK [_LLEQK(Methyl (K))TQESQK_], the collision cross section is reported as 404.61 ± 2.3 Å² under setting [13] and 458.64 ± 4.9 Å² under setting [14].
As to DYGNSPLHR [_DY(Phospho (Y))GNSPLHR_], the collision cross section was 345.01 ± 0.066 Å² under setting [3] and 444.49 Å² under setting [4].
